Experimental findings from PMC12505966, “Soluble MFGE8 mediates cell entry of Crimean-Congo hemorrhagic fever virus” (mBio, 2025) are described below.

This experiment concerns the target T1, CCHFV Gc monomer (Gc10200 aa 1,041-1,579, Strep-Tag II) (Crimean-Congo hemorrhagic fever virus, …, UniProt Q8JSZ3 1041-1579).
T1 construct: also called Gc protein; recombinant Gc monomer
T1 sequence: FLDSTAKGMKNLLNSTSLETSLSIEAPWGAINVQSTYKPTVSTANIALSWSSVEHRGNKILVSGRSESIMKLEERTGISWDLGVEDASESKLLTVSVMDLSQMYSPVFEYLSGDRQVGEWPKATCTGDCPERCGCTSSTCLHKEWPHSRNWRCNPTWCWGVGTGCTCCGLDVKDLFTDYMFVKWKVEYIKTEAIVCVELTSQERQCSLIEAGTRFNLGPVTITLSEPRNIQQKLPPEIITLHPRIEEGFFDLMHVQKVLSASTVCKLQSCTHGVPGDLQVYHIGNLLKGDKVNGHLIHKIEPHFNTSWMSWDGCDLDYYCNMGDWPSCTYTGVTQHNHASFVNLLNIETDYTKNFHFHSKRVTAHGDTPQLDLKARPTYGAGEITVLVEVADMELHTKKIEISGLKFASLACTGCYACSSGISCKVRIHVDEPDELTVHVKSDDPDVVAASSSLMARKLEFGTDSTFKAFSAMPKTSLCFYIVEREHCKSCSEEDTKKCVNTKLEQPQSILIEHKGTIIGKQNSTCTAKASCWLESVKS
The experiment can be described thus: BLI; ForteBio Octet Red; […] (15 µg/mL) […]; PBS with 0.02% Tween 20 and 0.1% BSA; 1/1 binding model. Conditions: both partners purified.

B1: Human recombinant MFGE8 protein with His tag at the C-terminus (natural protein, UniProt Q08431 24-387, looked up)
chain: LDICSKNPCHNGGLCEEISQEVRGDVFPSYTCTCLKGYAGNHCETKCVEPLGLENGNIANSQIAASSVRVTFLGLQHWVPELARLNRAGMVNAWTPSSNDDNPWIQVNLLRRMWVTGVVTQGASRLASHEYLKAFKVAYSLNGHEFDFIHDVNKKHKEFVGNWNKNAVHVNLFETPVEAQYVRLYPTSCHTACTLRFELLGCELNGCANPLGLKNNSIPDKQITASSSYKTWGLHLFSWNPSYARLDKQGNFNAWVAGSYGNDQWLQVDLGSSKEVTGIITQGARNFGSVQFVASYKVAYSNDSANWTEYQDPRTGSSKIFPGNWDNHSHKKNLFETPILARYVRILPVAWHNRIALRLELLGC
notes: also called milk fat globule-EGF factor 8 protein; lactadherin; not shown: His tag, C-terminal, kept
As usually defined, the Kd is the constant that tells how readily two partners part at equilibrium. High values mean lower affinity, low ones higher affinity. As to B1, the equilibrium dissociation constant (Kd) is less than 1 pM.
